Drawing on EP4640709A1, this text covers relative value (% reactivity, MFI) compared to positive antibody for 2 substances.

The target in assay [1] is human CX3CR1 (human) (UniProt P49238). Nature of the assay: flow cytometry, chimeric CX3CR1-expressing Ba/F3 cells, 200 nM, grade vs positive antibody (+++ >70%, ++ 40-70%, + 10-40%, - <10%).
Assay [2] addresses mouse CX3CR1 (mouse) (UniProt Q9Z0D9). Nature of the assay: flow cytometry, chimeric CX3CR1-expressing Ba/F3 cells. In general terms: Flow cytometry measures light scatter and fluorescence of single cells or particles in a stream.
Assay [3] shares this target. Nature of the assay: flow cytometry, chimeric CX3CR1-expressing Ba/F3 cells, 200 nM, grade vs positive antibody (+++ >70%, ++ 40-70%, + 10-40%, - <10%).
Assay [4] deals with human CX3CR1 (human) (UniProt P49238). Kind of assay: flow cytometry, chimeric CX3CR1-expressing Ba/F3 cells.
The next assay addresses rat CX3CR1 (rat) (UniProt P35411). Nature of the assay: flow cytometry, CX3CR1-expressing Ba/F3 cells, 200 nM, grade vs positive antibody (+++ >70%, ++ 40-70%, + 10-40%, - <10%); this antibody is itself the 100% reference.
The target of assay [5] is mouse CX3CR1 (mouse) (UniProt Q9Z0D9). Described as above.
Sequence of mouse CX3CR1 (mouse) (Q9Z0D9 whole entry): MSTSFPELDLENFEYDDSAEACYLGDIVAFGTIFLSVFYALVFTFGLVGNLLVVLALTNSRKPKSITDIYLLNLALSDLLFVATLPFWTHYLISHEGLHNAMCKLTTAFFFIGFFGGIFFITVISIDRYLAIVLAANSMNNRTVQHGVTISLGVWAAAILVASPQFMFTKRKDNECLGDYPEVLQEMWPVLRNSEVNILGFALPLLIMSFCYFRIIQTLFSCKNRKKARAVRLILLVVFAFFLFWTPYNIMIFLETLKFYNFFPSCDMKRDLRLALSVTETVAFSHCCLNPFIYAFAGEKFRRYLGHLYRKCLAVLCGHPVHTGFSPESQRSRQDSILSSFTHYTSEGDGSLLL
Assay [6] deals with cynomolgus monkey CX3CR1 (cynomolgus monkey). Nature of the assay: flow cytometry, CX3CR1-expressing Ba/F3 cells.
The target in assay [7] is human CX3CR1 (human) (UniProt P49238). Kind of assay: flow cytometry, CX3CR1-expressing Ba/F3 cells.

Sequence of human CX3CR1 (human) (P49238 whole entry): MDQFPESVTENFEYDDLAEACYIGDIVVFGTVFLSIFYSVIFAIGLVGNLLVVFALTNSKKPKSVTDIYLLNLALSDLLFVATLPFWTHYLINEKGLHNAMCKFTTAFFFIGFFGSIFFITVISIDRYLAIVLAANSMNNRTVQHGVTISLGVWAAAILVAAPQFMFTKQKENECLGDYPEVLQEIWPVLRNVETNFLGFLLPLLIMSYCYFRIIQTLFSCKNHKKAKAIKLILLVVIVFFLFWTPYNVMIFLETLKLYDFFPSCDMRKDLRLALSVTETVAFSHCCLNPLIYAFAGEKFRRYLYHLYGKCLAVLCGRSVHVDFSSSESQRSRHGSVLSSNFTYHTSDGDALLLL
Sequence of rat CX3CR1 (rat) (P35411 whole entry): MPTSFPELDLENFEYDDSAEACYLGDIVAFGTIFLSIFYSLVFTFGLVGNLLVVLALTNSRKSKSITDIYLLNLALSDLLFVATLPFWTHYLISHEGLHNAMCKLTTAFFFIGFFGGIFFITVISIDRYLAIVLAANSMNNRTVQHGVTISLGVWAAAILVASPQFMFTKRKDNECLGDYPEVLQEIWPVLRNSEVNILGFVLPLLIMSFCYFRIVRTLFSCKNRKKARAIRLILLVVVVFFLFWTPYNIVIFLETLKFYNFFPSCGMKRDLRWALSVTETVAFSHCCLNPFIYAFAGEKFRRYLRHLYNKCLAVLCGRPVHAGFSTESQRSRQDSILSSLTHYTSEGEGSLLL

With “anti-hCX3CR1 antibody K0124E1 (Biolegend)”, the relative value (% reactivity, MFI) compared to positive antibody at 200 nM with human CX3CR1 (human) [1] is 40 to 70%; with mouse CX3CR1 (mouse) [2] it was less than 10%.
“anti-mouse CX3CR1 antibody SA011F11 (Biolegend)”: the relative value (% reactivity, MFI) compared to positive antibody at 200 nM with mouse CX3CR1 (mouse) [3] was greater than 70%; in the assay with human CX3CR1 (human) [4], less than 10%; with rat CX3CR1 (rat), greater than 70%; with mouse CX3CR1 (mouse) [5], greater than 70%; in assay [6], less than 10%; with human CX3CR1 (human) [7], less than 10%.
